# Data taken from patent publication US12698507B2, “Methods and compositions for conferring and/or enhancing herbicide tolerance using protoporphyrinogen IX oxidase of various cyanobacteria or variant thereof” (FarmHannong Co., Ltd., priority 2019, dated 2026).
# System: PPO-deficient BT3 E. coli (ΔPPO)
# Assay: PPO-inhibiting herbicide tolerance test of PPO variants in E. coli (growth on herbicide-containing LB agar)
# Type: cell-based
# Conditions: CyPPO19 variants in BT3 (ΔPPO) E. coli; LB agar with 0 to 2,000 μM herbicide, 37° C., dark, 16-20 hours
# Procedure, shortened: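 Tolerance was scored against wild-type enzyme: '−' for equal growth, one '+' per 10-fold gain, up to '+++++'. ΔPPO BT3 cells carrying variant plasmids, spotted as a 10-fold dilution series from OD600=0.5, grew 16-20 h at 37° C. in the dark on ampicillin LB agar containing 0 to 2,000 μM herbicide.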
Molecule,"tolerance level relative to wild type, Carfentrazone","tolerance level relative to wild type, Flumioxazin","tolerance level relative to wild type, Fomesafen","tolerance level relative to wild type, Oxyfluorfen","tolerance level relative to wild type, Saflufenacil","tolerance level relative to wild type, Sulfentrazone","tolerance level relative to wild type, Tiafenacil"
"CyPPO19 V305M + F360I: variant of CyPPO19 PPO protein (SEQ ID NO: 1) (protein, Synthetic_PPO of Thermosynechococcus elongatus PKUAC-SCTE542 (comprising GenBank No. CP032152.1)) MSEVDVAIVGGGLSGLSLAWRLQQSAPQYSVVLLEASDRLGGNITTQTAEGFVWELGPNSFAPTPALLQLIAEVGLQSELIRGDRHLPRYIYWRGQLYPLQPTRPLALATSNLLSPWGKVRAALGALGFVPPYLGSGDESVNSFFRRHLGQEVAERLVAPFVSGVYAGDPQQLSAAAAFRRIAQLEKLGGGLIAGALHLRRQQAPKPKPPTSVQMRPGELGSFKEGLAALPRAIAQQLKAPIHLQTPVQEITPDPKGGYLLRSGEQTWRARSVVLATPAYQTAELVAPFQPAIARVLATIPYPTMACVVLAYPAGLGRSVRPGFGVLIPRSQGIRTLGTIWSSCLFPQRTPAGWQVFTSIIGGATDPDLASLSEEAIVQQVQQDLNRLLDLPAAKARLLGMKVWRRAIPQYMVGYPEQWQQVTHALSQTPGLFLCSNYAEGVALGDRVEHGNRTAAAVAAYLSGGQP",+ (‘+’ per each 10-fold resistance),++++ (‘+’ per each 10-fold resistance),+ (‘+’ per each 10-fold resistance),+ (‘+’ per each 10-fold resistance),++++ (‘+’ per each 10-fold resistance),++ (‘+’ per each 10-fold resistance),++++ (‘+’ per each 10-fold resistance)
"CyPPO19 V305M + F360L: variant of CyPPO19 PPO protein (SEQ ID NO: 1) (protein, Synthetic_PPO of Thermosynechococcus elongatus PKUAC-SCTE542 (comprising GenBank No. CP032152.1)) MSEVDVAIVGGGLSGLSLAWRLQQSAPQYSVVLLEASDRLGGNITTQTAEGFVWELGPNSFAPTPALLQLIAEVGLQSELIRGDRHLPRYIYWRGQLYPLQPTRPLALATSNLLSPWGKVRAALGALGFVPPYLGSGDESVNSFFRRHLGQEVAERLVAPFVSGVYAGDPQQLSAAAAFRRIAQLEKLGGGLIAGALHLRRQQAPKPKPPTSVQMRPGELGSFKEGLAALPRAIAQQLKAPIHLQTPVQEITPDPKGGYLLRSGEQTWRARSVVLATPAYQTAELVAPFQPAIARVLATIPYPTMACVVLAYPAGLGRSVRPGFGVLIPRSQGIRTLGTIWSSCLFPQRTPAGWQVFTSLIGGATDPDLASLSEEAIVQQVQQDLNRLLDLPAAKARLLGMKVWRRAIPQYMVGYPEQWQQVTHALSQTPGLFLCSNYAEGVALGDRVEHGNRTAAAVAAYLSGGQP",+ (‘+’ per each 10-fold resistance),++++ (‘+’ per each 10-fold resistance),++ (‘+’ per each 10-fold resistance),++ (‘+’ per each 10-fold resistance),++++ (‘+’ per each 10-fold resistance),++ (‘+’ per each 10-fold resistance),++++ (‘+’ per each 10-fold resistance)
"CyPPO19 V305L + F360M: variant of CyPPO19 PPO protein (SEQ ID NO: 1) (protein, Synthetic_PPO of Thermosynechococcus elongatus PKUAC-SCTE542 (comprising GenBank No. CP032152.1)) MSEVDVAIVGGGLSGLSLAWRLQQSAPQYSVVLLEASDRLGGNITTQTAEGFVWELGPNSFAPTPALLQLIAEVGLQSELIRGDRHLPRYIYWRGQLYPLQPTRPLALATSNLLSPWGKVRAALGALGFVPPYLGSGDESVNSFFRRHLGQEVAERLVAPFVSGVYAGDPQQLSAAAAFRRIAQLEKLGGGLIAGALHLRRQQAPKPKPPTSVQMRPGELGSFKEGLAALPRAIAQQLKAPIHLQTPVQEITPDPKGGYLLRSGEQTWRARSVVLATPAYQTAELVAPFQPAIARVLATIPYPTLACVVLAYPAGLGRSVRPGFGVLIPRSQGIRTLGTIWSSCLFPQRTPAGWQVFTSMIGGATDPDLASLSEEAIVQQVQQDLNRLLDLPAAKARLLGMKVWRRAIPQYMVGYPEQWQQVTHALSQTPGLFLCSNYAEGVALGDRVEHGNRTAAAVAAYLSGGQP",+ (‘+’ per each 10-fold resistance),++++ (‘+’ per each 10-fold resistance),+++ (‘+’ per each 10-fold resistance),++ (‘+’ per each 10-fold resistance),++++ (‘+’ per each 10-fold resistance),+ (‘+’ per each 10-fold resistance),+++ (‘+’ per each 10-fold resistance)
"CyPPO19 V305M + F360M: variant of CyPPO19 PPO protein (SEQ ID NO: 1) (protein, Synthetic_PPO of Thermosynechococcus elongatus PKUAC-SCTE542 (comprising GenBank No. CP032152.1)) MSEVDVAIVGGGLSGLSLAWRLQQSAPQYSVVLLEASDRLGGNITTQTAEGFVWELGPNSFAPTPALLQLIAEVGLQSELIRGDRHLPRYIYWRGQLYPLQPTRPLALATSNLLSPWGKVRAALGALGFVPPYLGSGDESVNSFFRRHLGQEVAERLVAPFVSGVYAGDPQQLSAAAAFRRIAQLEKLGGGLIAGALHLRRQQAPKPKPPTSVQMRPGELGSFKEGLAALPRAIAQQLKAPIHLQTPVQEITPDPKGGYLLRSGEQTWRARSVVLATPAYQTAELVAPFQPAIARVLATIPYPTMACVVLAYPAGLGRSVRPGFGVLIPRSQGIRTLGTIWSSCLFPQRTPAGWQVFTSMIGGATDPDLASLSEEAIVQQVQQDLNRLLDLPAAKARLLGMKVWRRAIPQYMVGYPEQWQQVTHALSQTPGLFLCSNYAEGVALGDRVEHGNRTAAAVAAYLSGGQP",+ (‘+’ per each 10-fold resistance),++++ (‘+’ per each 10-fold resistance),+++ (‘+’ per each 10-fold resistance),++ (‘+’ per each 10-fold resistance),++++ (‘+’ per each 10-fold resistance),++ (‘+’ per each 10-fold resistance),++++ (‘+’ per each 10-fold resistance)
"CyPPO19 V305M + F360V: variant of CyPPO19 PPO protein (SEQ ID NO: 1) (protein, Synthetic_PPO of Thermosynechococcus elongatus PKUAC-SCTE542 (comprising GenBank No. CP032152.1)) MSEVDVAIVGGGLSGLSLAWRLQQSAPQYSVVLLEASDRLGGNITTQTAEGFVWELGPNSFAPTPALLQLIAEVGLQSELIRGDRHLPRYIYWRGQLYPLQPTRPLALATSNLLSPWGKVRAALGALGFVPPYLGSGDESVNSFFRRHLGQEVAERLVAPFVSGVYAGDPQQLSAAAAFRRIAQLEKLGGGLIAGALHLRRQQAPKPKPPTSVQMRPGELGSFKEGLAALPRAIAQQLKAPIHLQTPVQEITPDPKGGYLLRSGEQTWRARSVVLATPAYQTAELVAPFQPAIARVLATIPYPTMACVVLAYPAGLGRSVRPGFGVLIPRSQGIRTLGTIWSSCLFPQRTPAGWQVFTSVIGGATDPDLASLSEEAIVQQVQQDLNRLLDLPAAKARLLGMKVWRRAIPQYMVGYPEQWQQVTHALSQTPGLFLCSNYAEGVALGDRVEHGNRTAAAVAAYLSGGQP",+ (‘+’ per each 10-fold resistance),++++ (‘+’ per each 10-fold resistance),+ (‘+’ per each 10-fold resistance),++ (‘+’ per each 10-fold resistance),++++ (‘+’ per each 10-fold resistance),+ (‘+’ per each 10-fold resistance),++++ (‘+’ per each 10-fold resistance)
"CyPPO19 V305L + F360L: variant of CyPPO19 PPO protein (SEQ ID NO: 1) (protein, Synthetic_PPO of Thermosynechococcus elongatus PKUAC-SCTE542 (comprising GenBank No. CP032152.1)) MSEVDVAIVGGGLSGLSLAWRLQQSAPQYSVVLLEASDRLGGNITTQTAEGFVWELGPNSFAPTPALLQLIAEVGLQSELIRGDRHLPRYIYWRGQLYPLQPTRPLALATSNLLSPWGKVRAALGALGFVPPYLGSGDESVNSFFRRHLGQEVAERLVAPFVSGVYAGDPQQLSAAAAFRRIAQLEKLGGGLIAGALHLRRQQAPKPKPPTSVQMRPGELGSFKEGLAALPRAIAQQLKAPIHLQTPVQEITPDPKGGYLLRSGEQTWRARSVVLATPAYQTAELVAPFQPAIARVLATIPYPTLACVVLAYPAGLGRSVRPGFGVLIPRSQGIRTLGTIWSSCLFPQRTPAGWQVFTSLIGGATDPDLASLSEEAIVQQVQQDLNRLLDLPAAKARLLGMKVWRRAIPQYMVGYPEQWQQVTHALSQTPGLFLCSNYAEGVALGDRVEHGNRTAAAVAAYLSGGQP",+ (‘+’ per each 10-fold resistance),++++ (‘+’ per each 10-fold resistance),+++ (‘+’ per each 10-fold resistance),++ (‘+’ per each 10-fold resistance),++++ (‘+’ per each 10-fold resistance),++ (‘+’ per each 10-fold resistance),++++ (‘+’ per each 10-fold resistance)
